Experimental data published in US20140114054A1 (UNIVERSITY OF MIYAZAKI, published 2014).

Molecular target: human TfR on TfR-expressing cells (human, UniProt P02786 1-760)
Experiment: cell-based or functional assay

Sequence of human TfR on TfR-expressing cells (P02786 whole entry): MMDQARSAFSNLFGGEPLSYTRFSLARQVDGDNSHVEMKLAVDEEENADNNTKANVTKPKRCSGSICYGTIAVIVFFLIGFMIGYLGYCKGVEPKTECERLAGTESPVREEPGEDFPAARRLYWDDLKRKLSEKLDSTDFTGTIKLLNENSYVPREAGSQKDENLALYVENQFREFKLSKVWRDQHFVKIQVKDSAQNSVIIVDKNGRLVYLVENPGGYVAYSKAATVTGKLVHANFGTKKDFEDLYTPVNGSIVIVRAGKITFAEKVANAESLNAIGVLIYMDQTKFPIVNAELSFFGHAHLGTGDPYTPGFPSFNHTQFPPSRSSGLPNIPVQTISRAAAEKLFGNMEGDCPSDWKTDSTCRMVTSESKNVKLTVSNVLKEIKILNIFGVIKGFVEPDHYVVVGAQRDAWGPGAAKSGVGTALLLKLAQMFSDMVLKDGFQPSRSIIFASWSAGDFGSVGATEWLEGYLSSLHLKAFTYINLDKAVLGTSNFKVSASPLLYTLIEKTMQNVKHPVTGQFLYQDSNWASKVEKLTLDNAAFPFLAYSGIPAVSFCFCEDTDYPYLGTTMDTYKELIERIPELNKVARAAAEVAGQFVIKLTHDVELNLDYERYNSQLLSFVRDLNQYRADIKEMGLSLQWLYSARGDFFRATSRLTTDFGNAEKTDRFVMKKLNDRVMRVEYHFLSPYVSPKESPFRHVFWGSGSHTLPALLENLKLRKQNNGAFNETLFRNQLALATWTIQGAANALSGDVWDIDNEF

B1: TfR006 IgG antibody (antibody, V domains shown)
VH: QVQLVQSGGGVVQPGRSLRLSCAASGFPFKSYGMHWVRQAPGKGLEWVAVISFDGSSKYYADSVKGRFTISRDNSKNTLYLQMNSLRGEDTAVYYCARDSNFWSGYYSPVDVWGQGTTVTVSS
VL: NFMLTQPHSVSESPGKTVTISCTRSSGSIASNSVQWYQQRPGSAPITVIYEDTQRPSGVPDRFSGSIDSSSNSASLTISGLQTEDEADYYCQSYDSAYHWVFGGGTKLAVL
  IC50 (ng/ml) of cell growth, A431: 36 ng/mL
  IC50 (ng/ml) of cell growth, A549: 41 ng/mL
  IC50 (ng/ml) of cell growth, BFTC905: 44 ng/mL
  IC50 (ng/ml) of cell growth, DU145: 33 ng/mL
  IC50 (ng/ml) of cell growth, HT29: 25 ng/mL
  IC50 (ng/ml) of cell growth, K562: 50 ng/mL
  IC50 (ng/ml) of cell growth, KLM1: 30 ng/mL
  IC50 (ng/ml) of cell growth, MIAPaCa-2: 55 ng/mL
  IC50 (ng/ml) of cell growth, MKN45: 26 ng/mL
  IC50 (ng/ml) of cell growth, MT-2: 71 ng/mL
  IC50 (ng/ml) of cell growth, NCI-H358: 37 ng/mL
  IC50 (ng/ml) of cell growth, NCI-H1373: 127 ng/mL
  IC50 (ng/ml) of cell growth, PK45-P: 100 ng/mL
  IC50 (ng/ml) of cell growth, RAMOS: 8 ng/mL
